Source: patent publication US12099068B2, “Biomarkers for graft-versus-host disease” (Incyte Corporation, priority 2018, dated 2024)

Test system: plasma proteins
Test: Plasma proteins modulated between baseline and day 28 in responders (CR, VGPR, PR; n = 19), Example 6 (Table 13)
Assay type: in vivo, human
Details: plasma protein (OLINK NPX); responders (CR, VGPR, PR; n = 19); itacitinib 200 mg or 300 mg QD with corticosteroids; day 28 vs baseline
Outline: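 Plasma at baseline/screening and day 28 profiled for >1000 proteins by OLINK proximity extension assay, reported as NPX (log2). Steroid-naive and steroid-refractory patients pooled. Paired and unpaired t tests, ANOVA and Pearson correlation applied; significance at P<0.05.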

Row | Molecule | Fold Change, Increased Expression from Baseline to Day 28 | Fold Change, Decreased Expression from Baseline to Day 28
1 | PODXL (protein, UniProt O00592 23-558, looked up) Podocalyxin: SPSPSPSPSQNATQTTTDSSNKTAPTPASSVTIMATDTAQQSTVPTSKANEILASVKATTLGVSSDSPGTTTLAQQVSGPVNTTVARGGGSGNPTTTIESPKSTKSADTTTVATSTATAKPNTTSSQNGAEDTTNSGGKSSHSVTTDLTSTKAEHLTTPHPTSPLSPRQPTSTHPVATPTSSGHDHLMKISSSSSTVAIPGYTFTSPGMTTTLLETVFHHVSQAGLELLTSGDLPTLASQSAGITASSVISQRTQQTSSQMPASSTAPSSQETVQPTSPATALRTPTLPETMSSSPTAASTTHRYPKTPSPTVAHESNWAKCEDLETQTQSEKQLVLNLTGNTLCAGGASDEKLISLICRAVKATFNPAQDKCGIRLASVPGSQTVVVKEITIHTKLPAKDVYERLKDKWDELKEAGVSDMKLGDQGPPEEAEDRFSMPLIITIVCMASFLLLVAALYGCCHQRLSQRKDQQRLTEELQTVENGYHDNPTLEVMETSSEMQEKKVVSLNGELGDSWIVPLDNLTKDDLDEEEDTHL | 1.2014 | 
2 | MPO (protein, UniProt P05164 165-745, looked up) Myeloperoxidase: VTCPEQDKYRTITGMCNNRRSPTLGASNRAFVRWLPAEYEDGFSLPYGWTPGVKRNGFPVALARAVSNEIVRFPTDQLTPDQERSLMFMQWGQLLDHDLDFTPEPAARASFVTGVNCETSCVQQPPCFPLKIPPNDPRIKNQADCIPFFRSCPACPGSNITIRNQINALTSFVDASMVYGSEEPLARNLRNMSNQLGLLAVNQRFQDNGRALLPFDNLHDDPCLLTNRSARIPCFLAGDTRSSEMPELTSMHTLLLREHNRLATELKSLNPRWDGERLYQEARKIVGAMVQIITYRDYLPLVLGPTAMRKYLPTYRSYNDSVDPRIANVFTNAFRYGHTLIQPFMFRLDNRYQPMEPNPRVPLSRVFFASWRVVLEGGIDPILRGLMATPAKLNRQNQIAVDEIRERLFEQVMRIGLDLPALNMQRSRDHGLPGYNAWRRFCGLPQPETVGQLGTVLRNLKLARKLMEQYGTPNNIDIWMGGVSEPLKRKGRVGPLLACIIGTQFRKLRDGDRFWWENEGVFSMQQRQALAQISLPRIICDNTGITTVSKNNIFMSNSYPRDFVNCSTLPALNLASWREAS |  | −1.8431
3 | CD244 (protein, UniProt Q9BZW8 22-370, looked up) Natural killer cell receptor …: CQGSADHVVSISGVPLQLQPNSIQTKVDSIAWKKLLPSQNGFHHILKWENGSLPSNTSNDRFSFIVKNLSLLIKAAQQQDSGLYCLEVTSISGKVQTATFQVFVFESLLPDKVEKPRLQGQGKILDRGRCQVALSCLVSRDGNVSYAWYRGSKLIQTAGNLTYLDEEVDINGTHTYTCNVSNPVSWESHTLNLTQDCQNAHQEFRFWPFLVIIVILSALFLGTLACFCVWRRKRKEKQSETSPKEFLTIYEDVKDLKTRRNHEQEQTFPGGGSTIYSMIQSQSSAPTSQEPAYTLYSLIQPSRKSGSRKRNHSPSFNSTIYEVIGKSQPKAQNPARLSRKELENFDVYS |  | −1.5176
4 | HCLS1 (protein, UniProt P14317 1-486, looked up) Hematopoietic lineage …: MWKSVVGHDVSVSVETQGDDWDTDPDFVNDISEKEQRWGAKTIEGSGRTEHINIHQLRNKVSEEHDVLRKKEMESGPKASHGYGGRFGVERDRMDKSAVGHEYVAEVEKHSSQTDAAKGFGGKYGVERDRADKSAVGFDYKGEVEKHTSQKDYSRGFGGRYGVEKDKWDKAALGYDYKGETEKHESQRDYAKGFGGQYGIQKDRVDKSAVGFNEMEAPTTAYKKTTPIEAASSGTRGLKAKFESMAEEKRKREEEEKAQQVARRQQERKAVTKRSPEAPQPVIAMEEPAVPAPLPKKISSEAWPPVGTPPSSESEPVRTSREHPVPLLPIRQTLPEDNEEPPALPPRTLEGLQVEEEPVYEAEPEPEPEPEPEPENDYEDVEEMDRHEQEDEPEGDYEEVLEPEDSSFSSALAGSSGCPAGAGAGAVALGISAVAVYDYQGEGSDELSFDPDDVITDIEMVDEGWWRGRCHGHFGLFPANYVKLLE |  | −1.455
5 | CD48 (protein, UniProt P09326 27-220, looked up) CD48 antigen: QGHLVHMTVVSGSNVTLNISESLPENYKQLTWFYTFDQKIVEWDSRKSKYFESKFKGRVRLDPQSGALYISKVQKEDNSTYIMRVLKKTGNEQEWKIKLQVLDPVPKPVIKIEKIEDMDDNCYLKLSCVIPGESVNYTWYGDKRPFPKELQNSVLETTLMPHNYSRCYTCQVSNSVSSKNGTVCLSPPCTLARS |  | −1.6022
